# Results as given in patent US20240317895A1.
# Columns and labels:
# [1] = target: PT linker-SpyCatcher-His (Streptococcus pyogenes); assay: depletion of SpyTag-GA (10 mg/g carrier) from E. coli lysate supernatant, SDS-PAGE densitometry; SpyCatcher on LX-1000EP epoxy carrier
# [2] = target: PT linker-SpyCatcher-His (Streptococcus pyogenes); assay: depletion of SpyTag-GA (10 mg/g carrier) from E. coli lysate supernatant, SDS-PAGE densitometry; SpyCatcher on LX-107S epoxy carrier (blocking control without SpyCatcher 72.5)
# [3] = target: PT linker-SpyCatcher-His (Streptococcus pyogenes); assay: depletion of SpyTag-GA (10 mg/g carrier) from E. coli lysate supernatant, SDS-PAGE densitometry; SpyCatcher on LX-103B epoxy carrier
# [4] = target: PT linker-SpyCatcher-His (Streptococcus pyogenes); assay: depletion of SpyTag-GA (15 mg/g resin) from supernatant, conditions of Example 4.3; SpyCatcher modified epoxy carrier, batch 1
# [5] = target: PT linker-SpyCatcher-His (Streptococcus pyogenes); assay: depletion of SpyTag-GA (15 mg/g resin) from supernatant, conditions of Example 4.3; SpyCatcher modified epoxy carrier, batch 4
# [6] = target: PT linker-SpyCatcher-His (Streptococcus pyogenes); assay: depletion of SpyTag-GA (15 mg/g resin) from supernatant, conditions of Example 4.3; SpyCatcher modified epoxy carrier, batch 3
# [7] = target: PT linker-SpyCatcher-His (Streptococcus pyogenes); assay: depletion of SpyTag-GA (10 mg/g carrier) from E. coli lysate supernatant, SDS-PAGE densitometry; SpyCatcher on ECR8285 epoxy carrier
# [8] = target: PT linker-SpyCatcher-His (Streptococcus pyogenes); assay: depletion of SpyTag-GA (15 mg/g resin) from supernatant, conditions of Example 4.3; SpyCatcher modified epoxy carrier, batch 5
# [9] = target: PT linker-SpyCatcher-His (Streptococcus pyogenes); assay: depletion of purified SpyTag-GA (15 mg/g carrier) from supernatant, SDS-PAGE densitometry; SpyCatcher-LX-1000EP; pH 7.0, 25 C, 2 h
# [10] = target: PT linker-SpyCatcher-His (Streptococcus pyogenes); assay: depletion of SpyTag-GA (10 mg/g carrier) from E. coli lysate supernatant, SDS-PAGE densitometry; SpyCatcher on ECR8204 epoxy carrier
# [11] = target: PT linker-SpyCatcher-His (Streptococcus pyogenes); assay: depletion of SpyTag-GA (2.0 mg/g carrier) from E. coli lysate supernatant, SDS-PAGE densitometry; SpyCatcher-LX-1000EP; pH 7.0, 25 C, 2 h
# [12] = target: PT linker-SpyCatcher-His (Streptococcus pyogenes); assay: depletion of SpyTag-GA (10 mg/g carrier) from E. coli lysate supernatant, SDS-PAGE densitometry; SpyCatcher on HFA001 epoxy carrier
# [13] = target: PT linker-SpyCatcher-His (Streptococcus pyogenes); assay: depletion of SpyTag-GA (15 mg/g resin) from supernatant, conditions of Example 4.3; SpyCatcher modified epoxy carrier, batch 2
substance,measurement,setting,value
SpyTag-GS linker-GA-His fusion protein of a SpyTag and glutaryl-7-amidocephalosporanic acid acylase (from UniProt P07662 30-720) (enzyme),Immobilization Efficiency (%),[1],77.6%
same,Immobilization Efficiency (%),[2],49.1%
same,Immobilization Efficiency (%),[3],77%
same,Immobilization Efficiency (%),[4],94.7%
same,Immobilization Efficiency (%),[5],86.6%
same,Immobilization Efficiency (%),[6],90.9%
same,Immobilization Efficiency (%),[7],57.4%
same,Immobilization Efficiency (%),[8],96.9%
same,Immobilization Efficiency (%),[9],91.5%
same,Immobilization Efficiency (%),[10],52.1%
same,Immobilization Efficiency (%),[11],86.2%
same,Immobilization Efficiency (%),[12],79.4%
same,Immobilization Efficiency (%),[13],92.2%
